Assay results from patent publication US20040138156A1, “Therapeutic regulation of deoxyribonuclease-1-like-3 activity” (priority 2002, published 2004).
Entries after “also recorded” stand apart in the source; their conditions may differ. Read-outs that look alike come from different tables or passages of the source.

Tests used:
[1] = tested on: free DNA; assay: Radial diffusion assay (RDA) of nuclease activity against free DNA in conditioned media; assay type: biochemical; conditions: for RDA nuclease activity of conditioned media (in words): media conditioned by transfected HeLa cells
Procedure: (§1) Transfection Reagents and Resistance Assays. Lipofection of respective pcDNA3.1-D1 or -D3 ([…] purified with Promega Wizard Plus DNA system) was performed independently into 1-2 million HeLa cells, which produce a low background of secreted nuclease activity, when grown in DMEM with 10% FCS (LifeTech) in 6 well culture plates (Becton-Dickinson). […] Media of the transfected cells were conditioned for 36-48 hours and served as source of the respective enzymes. Nuclease activity in conditioned supernatant was measured by RDAs, zymograms and by testing activity against supercoiled pBluescript (Stratagene).
Nuclease Assays. Nuclease activity against “naked” or free DNA in CM was quantified by densitometry of RDAs. For assays of media by murine cells, RDAs were performed using conditioned media, after 36 hour incubation of equal numbers of target cell population. Each conditioned media was sampled in triplicate. RDAs for all four mice were performed on a single dish. For RDAs, 2-5 ul of conditioned supernatant was dotted on 100 mm dishes containing 2% agarose, 250 ug/ml DNA, 0.001% EtBr, 0.5% filtered milk, 10 mM Ca^+2/MgCl2; and 12.5 ug/ml kanamycin. Multiple observations were generated for every sample obtained. After 24 hours of 37° incubation, plates are photographed under UV transillumination; and scanned photos were analyzed with NIH image. For RDAs, the activity was quantified as the product of mean density and area (traced on image) of zones of clearing. For observations of serum/urine, 2-5 ul of serum were dotted on agarose plates.
(§2) Zymograms are in-gel renaturation assays performed by SDS-PAGE through a gel impregnated with 200 µg/ml DNA and ethidium bromide, eluting away SDS with repeated washes in 25 mM Tris-HCl pH 7.5, then incubating for 12-16 hours at 37° C. in 25 mM Tris-HCl pH 7.5 with 10 mM Ca^+2/Mg^+2 buffer. Activity is measured as dark “bands” of DNA digestion (Rosenthal et al., (1977) Anal. Biochem. 80, 76-90) and quantified using scanned images using NIH Image. Photographed RDA results were scanned 600 dpi Tiff images, and activity was measured as pixel area times density of traced zones of clearing (n=3 for each zone). Student's T-test was used to compare paired results. Nuclease activity ratios were obtained by comparing intra-plate results.

[2] = tested on: HeLa cells; assay: BT assay: liposomal N1-eGFP transfection of HeLa cells in DNASE-conditioned media, GFP immunoblot; assay type: cell-based; conditions: for BT activity / GFP expression or transfection efficiency in cells exposed to undiluted conditioned media: FuGENE-6, anti-GFP immunoblot
Procedure: In the main assay, an eukaryotic marker such as green fluorescent protein (GFP) expression plasmid complexed with a lipid reagent is transfected into HeLa cells incubated in control media, D1L3-conditioned media, or D1-conditioned media (FIG. 4). The assay is not limited to the use of GFP as a marker, but could use any of many expressed biomarkers encoded by nucleotides that can be assayed either immunochemistry, fluorescent detection, or enzymatic detectection, and these include but are not circumscribed to luciferase, chloramphenicol acetyl-transferase, antibiotic or chemical resistance genes, Beta-galactosidase, FLAG-, myc-hemaglutinnin-, or other epitope tagged molecules, as well as other markers of gene or nucleotide transduction. The endpoint of the assay is the detection of a synthesized protein, but could easily have been the detection of a transcribed gene product, since the assay ultimately measures the ability of D1L3 added the media/milieu overlaying the cells to block the ultimate association of an expressible plasmid with the transcriptional machinery.
as §1
To test for the ability of the nucleases to block transfection, the media in individual wells of naive HeLa cells were replaced with conditioned media, and cells transfected with […] of N1-eGFP plasmid (Clontech) using various transfection reagents (FIG. 11) and their respective protocols. GFP expression by immunoblot directly correlated with transfection efficiency in present experiments. Thus, transfection efficiency was compared by densitometric analysis of GFP immunoblots.
GFP expression was also examined by fluorescent microscopy using a FITC filter. For microscopy, cells were fixed for 5 minutes in 4% paraformaldehyde dissolved into 1% PBS.
Antibody Reagents and Immunoblotting. After 24-36 hours, cells transfected with N1-eGFP were lysed in SDS-buffer and immunoblotted for expression with anti-GFP at 1:5000 dilution (Clontech). To confirm nearly equal protein loading per lane, anti-β-actin monoclonal antibody at 1:7,000 dilution (Sigma) were prepared. For immunoblots, […] protein was eletrophoretically separated by 12% SDS-PAGE gel, followed by electrotransfer to Immobilon-P membranes (Millipore) for expression studies. Immunoblotting was performed using ECL detection (Amersham).
Transfection efficiency was compared, wherever possible, by pixel densitometry of the scanned images using Scion Image 4.02 software.

[3] = tested on: DNA; assay: DNA-SDS zymogram of nuclease activity; assay type: biochemical
Procedure: as §2
Prokaryotic Expression and GST Purification. Human D1L3-GST expression was performed by growing transformed BL21 Cells (Stratagene) at log phase were induced in 50 mg/ml IPTG for 5-7 hours at 32°. Bacterial pellets were lysed in 1×SDS-PAGE buffer and loaded on SDS-12% PAGE.

Molecule | BT activity / GFP expression or transfection efficiency in cells exposed to undiluted conditioned media [2] | RDA nuclease activity of conditioned media (in words) [1] | nuclease activity by zymogram (in words) [3] | further results
89I: Murine D1L3 variant of NZ and MRL strains, isoleucine for threonine at residue 89 (protein) LRLCSFNVRSFGASKKENHEAMDIIVKIIKRCDLILLMEIKDSSNNICPMLMEKLNGNSRRSTIYNYVISSRLGRNTYKEQYAFVYKEKLVSVKTKYHYHDYQDGDTDVFSREPFVVWFHSPFTAVKDFVIVPLHTTPETSVKEIDELVDVYTDVRSQWKTENFIFMGDFNAGCSYVPKKAWQNIRLRTDPKFVWLIGDQEDTTVKKSTSCAYDRIVLCGQEIVNSVVPRSSGVFDFQKAYDLSEEEALDVSDHFPVEFKLQSSRAFTNNRKSVSLKKRKKGNRS | saturated BT activity |  |  | RDA-nuclease activity relative to the 89T enzyme ([1]; in vitro): about half; defect in BT activity ([2]; normalized to immunoblotted D3 protein levels, versus 89T, n=6): ~8 fold; GFP transfection in ten-fold diluted conditioned media ([2]; ten-fold (five and ten fold) dilution of conditioned media): liposomal gene transfection is possible; also recorded: shows transfection; zymogram nuclease activity relative to 89T-transfected cells ([3]; HeLa-expressed, normalized to immunoblotted D1L3 levels, n=16): 44%; decreased zymogram activity relative to protein levels ([3]; versus 89T, GST fusions and HeLa-expressed enzymes): ~50%
N196K-D3: Murine D1L3 with conserved asparagine 196 changed to lysine; inactive nuclease (protein) LRLCSFNVRSFGASKKENHEAMDIIVKIIKRCDLILLMEIKDSSNNICPMLMEKLNGNSRRSTTYNYVISSRLGRNTYKEQYAFVYKEKLVSVKTKYHYHDYQDGDTDVFSREPFVVWFHSPFTAVKDFVIVPLHTTPETSVKEIDELVDVYTDVRSQWKTENFIFMGDFKAGCSYVPKKAWQNIRLRTDPKFVWLIGDQEDTTVKKSTSCAYDRIVLCGQEIVNSVVPRSSGVFDFQKAYDLSEEEALDVSDHFPVEFKLQSSRAFTNNRKSVSLKKRKKGNRS | did not differ significantly from controls; also recorded: incapable of providing a barrier to transfection | Nearly no clearing; also recorded: negligible background RDA activity; also recorded: no nuclease activity above background | no nuclease activity above background | 
D3DCT: Murine D1L3 truncated by a stop codon at Ser-289, lacking the basic C-terminus (289-310) (protein) LRLCSFNVRSFGASKKENHEAMDIIVKIIKRCDLILLMEIKDSSNNICPMLMEKLNGNSRRSTTYNYVISSRLGRNTYKEQYAFVYKEKLVSVKTKYHYHDYQDGDTDVFSREPFVVWFHSPFTAVKDFVIVPLHTTPETSVKEIDELVDVYTDVRSQWKTENFIFMGDFNAGCSYVPKKAWQNIRLRTDPKFVWLIGDQEDTTVKKSTSCAYDRIVLCGQEIVNSVVPRSSGVFDFQKAYDLSEEEALDVSDHFPVEFKLQS | did not differ significantly from controls; also recorded: no significant decrease | greater RDA activity than D3 |  | RDA nuclease activity of conditioned media (in words) ([1]; listed as D3 pCT): slightly increased nuclease activity; BT activity / GFP expression or transfection efficiency in cells exposed to undiluted conditioned media ([2]; listed as D3 ρCT): unaffected
Y261 C: Human DNASE1L3 with Tyr>Cys at aa 261, HA-tagged, expressed in HeLa (protein, UniProt Q13609 21-305, looked up, variant Y261C, HA tag, Human DNASE1L3 with Tyr>Cys at aa 261, HA-tagged, expressed in HeLa) Deoxyribonuclease gamma: MRICSFNVRSFGESKQEDKNAMDVIVKVIKRCDIILVMEIKDSNNRICPILMEKLNRNSRRGITYNYVISSRLGRNTYKEQYAFLYKEKLVSVKRSYHYHDYQDGDADVFSREPFVVWFQSPHTAVKDFVIIPLHTTPETSVKEIDELVEVYTDVKHRWKAENFIFMGDFNAGCSYVPKKAWKNIRLRTDPRFVWLIGDQEDTTVKKSTNCAYDRIVLRGQEIVSSVVPKSNSVFDFQKACKLTEEEALDVSDHFPVEFKLQSSRAFTNSKKSVTLRKKTKSKRS | complete loss of function | complete loss of function | complete loss of function | RDA nuclease activity of conditioned media (in words) ([1]; listed as 261 C): only faint, if any, activity; BT activity / GFP expression or transfection efficiency in cells exposed to undiluted conditioned media ([2]; listed as 261 C): absence of barrier activity; nuclease activity by zymogram (in words) ([3]; listed as 261 C): no activity
N191K: Human D1L3 with N191K mutation, expressed as GST fusion in E. coli (protein) MRICSFNVRSFGESKQEDKNAMDVIVKVIKRCDIILVMEIKDSNNRICPILMEKLNRNSRRGITYNYVISSRLGRNTYKEQYAFLYKEKLVSVKRSYHYHDYQDGDADVFSREPFVVWFQSPHTAVKDFVIIPLHTTPETSVKEIDELVEVYTDVKHRWKAENFIFMGDFKAGCSYVPKKAWKNIRLRTDPRFVWLIGDQEDTTVKKSTNCAYDRIVLRGQEIVSSVVPKSNSVFDFQKAYKLTEEEALDVSDHFPVEFKLQSSRAFTNSKKSVTLRKKTKSKRS |  |  | no detectable nuclease activity | 
